15 sequences from the DeepSol protein solubility set can be followed below.

The nature of this data set: soluble on expression in E. coli; label from the status in PepcDB or PDB records.
For “MAHHHHHHMQRHTVEKKLQRSTHAAECHTDVAVVRLPHVQREVRQRLVHHAARVAVDSSLRQGRHNRVGHLKGKTRRAMPSVPAAARARVAVHRLRPGHVARRVVVARAAPEHHHALRKHTVVQHLPPFLVQVAPHHKPRGRRHNRVRWKKFGKGCTSFHLTVVCKHHSGAAARQLNFLLRTWHT”, the “soluble on expression in E. coli” value is given as “not soluble”. Take “MAHHHHHHMRKKMKTLHLTGKKNFLFQNMQLRLYKEAPPKVFNKKSSHSSLWIQRQITDRYVLKAKNDNYRSRAAYKLIELDNKYMFLKKNKTILDIGCYPGSWCQVILERTKNYSNEIIGIDKKIMDPLPNIHFIHAEIGGAKDNPNDSNLVDVKLREILQGKKVDIILSDAAVPCVGNKIDDHMNSCELTLGITNFMEQYINMGGTYVVKMYLGSQTDNLKTYLKTIFQFVNTTKPKASRRESREIYLVCRNFLGRKKIGEDVQVKGAFSLKEGYY”: the “soluble on expression in E. coli” value is on record as “not soluble”. On to “MAHHHHHHMRKLSGDLKATAATPLTPPVTTPQPQPDGTDRSKSAGGQATYEPLHVLGQGSFGVVMMARVRETGKMVAVKKVLFDRRLHHRELLLLRDHLGPGTHAGQAGTGNHDDPGKEAGKTDPSNTNNSAGEVGFTPLGDLASVPTTVSYHPCIVRLLDHFTVAGPNGEQYLYIVMDYLPLDIHHLHHIYLRQKQQRMPFILVKVIMFQLARALMFLHLRGICHRDVKPSNLLIDPETGVLKLCDFGSAKVMQPQGVNGPIEKNVSYICSRYYRAPELLLGSLYYHFHVDMWAAGCVLAELLCGEVLFKGASTVDQMAEIFKVLGAPSRQELLALNPQGAEALFHATGAGLEVTPTSAANTATSSDYLQRYHALRIKALQWQNVLPPNTPPAAVSLVGELLRYTPAERLSAAEVLEHSFFDDIFAEDASLPNGAPLPVSMFEVTAEEMEALPPWLLERMASAEASARRRHVSAGGSGKVVPPQKRQEQEGRK”, for which the “soluble on expression in E. coli” value is recorded as “not soluble”.

Turning to “MAHHHHHHMRMSLTTRRPFCPVLLNIGSSRAVTLSHFHAKVCPSITATVKQTIRELDDEASPNHQRRQESCFSSGELRLRPYGFSPERPQLQHESWSCAWHSYLNAVRLRGEVSAAGVAPLPPTATSANSTSHNDDEFFPMTGTLTLPVPVVVPTSNNEPSNETIMMEFFRVDAFIPVRVQMYHVMRRLIKMQAVWNNIVAIGIVVPTHEVEYFISAARAAHASDGERTPHALLSRKPSVLVYDPEGLRFQAPESKRLRK”, the “soluble on expression in E. coli” value is listed as “not soluble”.

Consider “MAHHHHHHMRPTFPALGSRAKGYENRVMVYAHRRHRAWYLPPKLAHARSPLANKSPDEYGNTWDPRTGVEWYHRLRRRGAYRHWPWARWNDDPVRQHQELSCRRTFSAAVTGANEGVPLWNYYAEVGQEYGLPSHFPLSFMAPFIHQYTSRAWSRKEIERHLKVVEERTGLRTIQQACDATSELLEWGEEEMGVVPHGLLQHVVMLAEDIVLQNKKKAYRKAAHERGILRTTTMERYYALPHLRTGPPMPTTLEQPSGEFPWGKFSTMVGGTRIHPLYRPDGFFKDNMYPA”, for which the “soluble on expression in E. coli” value is “not soluble”. The same measure for “MAHHHHHHMRRIQLAFLTKLWQRRNCGSFNERALVQRTCEHIYCSSSAREQLRQLIHESSVENALRHLGEFSNDVSVLKGSAWLGQLSKAPDVVGRIAVILPQFEKWYVARKAPEKVTMHEPWDWYPKARFMRRRFVFHYGPTNSGKTHAALETLVKAKSGVYCAPLKALAAQVWKRIDASVPCDLLIGDERRFGGGAEHVSCTVEMTPIDYQIDVGVIDEVQMIADRDRGWAWTRALLGLPAREIHLCGEERAIPLIRKVLYKTHELQRLEVVPHKRLVPLEVSPSLDGDLRRIENGDTLVCFSRRAIFDMKKKLENISGMAPHCIYGSMPFSVREAQADAFNNGTRDVIEGKSGKKHVLISTDAIAYGLNMSIERIIFTSMRKFDGKQMVTLPQATILQVAGRAGRFGVLRSHKFGRCTTLDSNDFAVLCEAVNSRLPSLQKAGLLPTAEVLELYIRLREAEEGGRVTENNLASFYQRMREFSECCQASDLFFPCDLSRSLLQVAKELEAVTDLSLSDRILFCYVPLNDRGKETYDLLRAFGHDHAAGRHVVLRIDEEFERLVKQCDLVCSGDTRRAHQVLTRMEHLYRVAEMYCWLAWRFGKTFVHLETATALKERAALKMEEILQHL”: “not soluble”; for “MAHHHHHHMRRTLALYKQGRSREPNVGRLLYGKRKNLVHHASEAKPSVTAVLAQTPTERLPVAVKHALQVKELHREQIATLLKQHRALRRFDRTEVIVQALRDAKQPLTSQHYCVLMAHANDERQTRRALQFWKDAVSEGKVNERLHGALMSTYRNAGNWRAAMRHCERMWRDQQVLDPLAAHAVMNACRRYGPWQMGLKVFSDAVQHGTKPNGVVYLELLRLIAQSKMPARWMYGLAILRALEASVEVTAGHYNAVLATMGGRNWEKGIELFHSMQVHNVQPSTETLNTVQQLHPHSVSHCIRCVAEAHALGMPITDTMYRNVLLNLFRMQLNNEATQFAEREYKLDCVDAGNPLTHTLSLSVAMVDALLSHPRPHDALLVYESFQDKIGDVVAAATRQLGTSGSLEQRWLVQGRVAVVDHNVLLSTTFESLIHHYDSVFVPFASVRLLVRRARENGHSVQGLHMKTTLRRIGLLLKREEWRMLRVLPYAHQLLAHTYLSEGGPASPEALKALREEAETQSLLPESPQTPTAVAKAVSAYGQALLRRLTPVGEAAEVAGAVRADQSGERGTEDAAKNLVIREAAGGAADTGASSLVSSKAWPAATAPFPMVLHSPRRITSVERVTAVAAMLKSLNPDAEVHVLSTNASQLAAVRHWNAVRVGVLLVPVHYPDQLRQMAPPALPISEGAVAAAMAAPGFRGPKPRL”: “not soluble”. The same measure for “MAHHHHHHMRVLSGVELEAVNRVVEHLRCHPEDLHRNEFRELREYMASLGASIPPPPDTPDVSGVRKEANSDDEEEYVSEPDSQRCALEPVSDDDITAYDGTDPTPEDEERAMGLKAQAAELAADGDFDKAIELMGQALRIVPGKAMYWAQRASYFLKCTQPGAALQDANRALDLNPENVRALRVRGTVNRRLGKWEEALKDLSEAQAVDYDEGIDEILRFVQKRTNDRRQFQQRKKEAQRLRQEALRRQREHELREEEMKREQQQQRDQQQSGAGDFPGGAGGFPGGFPGGAGGGGMQSFMESLFQDQELAEAMKDPEVAAKLATLRSNPMAALQMMGDPKVGPLIQKMMSKAMGGSSPGSSPFGAGASAGATSHADAHHSDELD”: “soluble”; for “MAHHHHHHMSARMQFPLSQRRHTNIAVVRYSKNGVKLEIACYKNKVISYRSGTENRLDEVLQVERIFANVARGYLASEKEIQTVFGGEMTEAEAIRYMLDHGELQVAQQERAAEVDEMFKDIAVIISQKCINTKTQRPFPPQVVEQALRSIGAAVKLDQSVKKQALGLIHLLIDSDILPIARANMKIRCTTTSEAALEKLRGWCRDNDADVVSDSVTGKTSDGGSGNFGHALLLLMQPNLFRDLDHFVKEALPSGSTIHMVEAAVTEVGDSDVLLDANAVSLANAQPGRAEEEATMAGSRRAAAAPSSSSAGEVNRGCSDGRGGETGMSSNLGQGADNASNGQHQSDGEGKRGRTGKAKGTTRRGHRGRQSNNSDGDDLLDGSTDGAAEGGLGVDHDIAAGLQRLGLDPSHDLQDDSDDDGGRGRGSRGKKKKNASGTGGGPYQSQGAGGRKAGGGAAAVDDDDNAGKGKKGRKNAKSKKVAAAEKAKPGAEGAFSDSDEELMGNRKQRAKKQQETRMQQGGNDWHEEDFDYGEDEEAEVQLS”: “soluble”. Turning to “MAHHHHHHMSDTRDVAQPRRGSFASRKARGETGGSKSSSSSSKNKEHSYDARRYHQNANTHGIHALRTFDCPVCDSKNTIRVTLNPRLGEGTVSCTYCCSLRPAPPDLPYPSVQRFVPSLENRADVFFRFNEQYAALLRQHKSERVGESVDPSSCLATVDNTRKRANKDDGESGGRARGPRGESRDEDGLFGDCALHMDTGLFDNAVDQHVTGTLAMLGSDDDGGSNTVADADPGNPKGVSTPSPPRPDGADMPESDFMNVAVIAGVDEAFAAHAADGVDGMGEADAEEVDVAAFFADSD”, the “soluble on expression in E. coli” value is given as “not soluble”. The same measure for “MAHHHHHHMSFLPIRVCVLVCSYEGSDSELKEYEGEIVQTPQHYFTEEDSKEFVFTLEFVKKATAYRQIRQLVKSGAFDVFYNQCDGAIDEDKAGVEVVQALESFKVPFTGAISKYYELSKPEMKRMAHYCAVKTAPYAVLEAGDNVRELCAALHFPLIVKHISGYSSVGMDKSCKVYDMDALKERVARFIDQYQSALVEEFISGDEATVLVCADASQPGGIRVFPPVMVQFPEGEDFKHFHLKWETYEGMIWRLVSEDDPALPDIIHIARTAFLHMMGGVGYGRVDVRIDREKNTVVFLEINPNCGIMYPYGQEGSADWILRLTPEFKQKEFAKLQISEAIRIHKCKQPLFRCAYDPVREYYICATRDIPAGSIIFEGEGRLVRLCTKPYVKANWSEVEYNEFLHDAWPVGAEGHYYALWDLESSDWRAVNHSCDPNMGFCPNRSLNVHALRDIAKGEELTMDCRLFMDDTMPPFQCHCKTSICAGWIRGGVMRESHFFESYTERLIHREDKFITQLTRN”: “not soluble”.

With “MAHHHHHHMSGEVDFWSATIAAYQPLQLTSPELTPKLLKRPPFRFIHDIVCSIDARFAAYDHIIPAELRDSAQVDTKEKKIEYLTTLIQYINRIMKVEIDVNPKKIVSGNEPEKTNIFLQYLAAGVGYAQQDKAAQATPAPQQKSAASLASPASPAAASFSTNPAQDNLSLSLASGLCRKKSSSRDPAERRRSHVSVFDEAAKFNRKLSGYSLNLNLDEQRDVRSEGQSIVRMWNELANPQTETKPSHMPQEALETAIKRQIETVKMVQELLSENDRVIDKLEALVI”, the “soluble on expression in E. coli” value is on record as “not soluble”.

As to “MAHHHHHHMSGSVNRSNSFQKADSMDAKETSTVDRKWVALTAYQPVDVVTKTVEVPVIKTVEKFVPKTIIQEKIIHVPKNVTHIVEKIVEVPEVKYIEKIVEVPHIHYKNKYVPKIEVVEKVVERQKIIEKWHDKIVEVPQIKEVVRFKEIEDAEEVIKYIPRNSKNINWEEEYQKYTQRKGQERYSLDNNAYQQKMSSYNDYNEKAYSQNAYSRSLDFMNKQSSSLNNQSNIRSEDFSQINFFNQYIGSAGASYDKQRNSVPTSSFDARGSLQLKRMPSEEAKPVGCCTSACT”, the “soluble on expression in E. coli” value was “not soluble”. Take “MAHHHHHHMSHTFTDPLVDLASVSFQYPHGGGGSAGGIRDVSVRVNGGDRVLVVGHNGSGKSTLLSVIAGRRKASSGRATVLGSDAFDDTRLQQHVTLIGRPWPTEAFFATTVDQVTSQAPLPERKRSVADALHLDLGRAVSNMSSGERRRVQILHGLLQKSFVYLLDECSTDIDIAERMTVLDLVRSECVVGDSCCLYATHIFDGVSDWATHLLLMQGGMVVDFKRVSDLNAPLEVFVCHFLTRRHRGLFDHTSKRTPVKDAYNDDWKGGGTVTALPLEKEAVIVCDRLQYRNIFRNLSFTVYRGDRVLLCGCNGAGKSTLLKMMGGKQFFNNCNGSLRILGKSCYDDMTLNGLVAFGGEWWDTAPPGEMHVHEMLQLQTPRAEWLCKVLGVDLSWDVRHISTGEQKHVQLLLHLLEDKPVILLDEATSDLDLDQRQELLSFLYSESVNRGVTVVYATHIFGGLENWPTAVMMLDRTTQGLHAMWCGSDVKWAEVTRELIALK”: the “soluble on expression in E. coli” value is “not soluble”.

As for “MAHHHHHHMSNELLQGAALYKELLCVYHNLAESELGLSGGDVGALFQIKENLSQPISCDIQKCKEILTKLKLVLIHLPSVDPLVPIGKKNINELLLARHILEKGVIISILDRDIKAFSIYMAQLLLYYFDYCNFLPKSGNQNGIIGMYLLYLLSSNLIGDFHMTLEVISIEDQSDEYIKYALELEQHIMDGYFHHVLTKKENIPLYLYSLFIERLYNTIRHKLADCLFASSNCISSEYACELLKLGSEQELCQFIGEYNEAKTSQGECNLLWEVRNKKIYFNNQTVHVQDLPALEVLNNTIGYATELERIV”, the “soluble on expression in E. coli” value is “not soluble”.
